# In patent US20150094219A1:
# Tests used:
# [1] = target: thrombin protease (Amersham Biosciences); assay: cell-based or functional assay
# [2] = target: GFP^2-RG-RLuc fusion protein (UniProt P27652)
# GFP^2-RG-RLuc2 (GTR2) = GFP^2-RG-RLuc2 (GTR2) (UniProt P27652)
# GFP^2-RG-RLuc2 (GTR2), sequence (P27652 other isoform, or with tags, fused parts or gaps): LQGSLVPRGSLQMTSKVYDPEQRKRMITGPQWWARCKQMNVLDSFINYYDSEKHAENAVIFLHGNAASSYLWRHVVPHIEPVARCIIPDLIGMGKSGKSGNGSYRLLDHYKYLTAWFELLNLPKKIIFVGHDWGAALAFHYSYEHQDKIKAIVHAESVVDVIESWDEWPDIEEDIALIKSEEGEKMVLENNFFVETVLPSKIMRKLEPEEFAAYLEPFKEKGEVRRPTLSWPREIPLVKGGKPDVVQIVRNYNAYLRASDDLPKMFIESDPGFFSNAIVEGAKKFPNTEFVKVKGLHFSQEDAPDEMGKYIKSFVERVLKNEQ
# GFP^2-RG-RLuc fusion protein, sequence (P27652 other isoform, or with tags, fused parts or gaps): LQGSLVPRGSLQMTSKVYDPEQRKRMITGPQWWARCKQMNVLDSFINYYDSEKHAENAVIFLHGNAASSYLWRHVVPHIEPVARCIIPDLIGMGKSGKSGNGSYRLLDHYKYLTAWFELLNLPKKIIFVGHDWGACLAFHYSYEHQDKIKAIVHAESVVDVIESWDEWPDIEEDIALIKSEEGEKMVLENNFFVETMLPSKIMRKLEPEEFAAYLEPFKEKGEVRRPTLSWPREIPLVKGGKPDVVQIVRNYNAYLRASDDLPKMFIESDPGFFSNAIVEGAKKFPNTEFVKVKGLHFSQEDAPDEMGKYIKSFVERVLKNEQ
# Recombinant hirudin from yeast (Sigma), sequence (P01050 whole entry): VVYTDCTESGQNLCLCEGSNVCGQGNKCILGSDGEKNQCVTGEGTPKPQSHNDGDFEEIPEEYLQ
Substance,BRET^H ratio of the sensor with thrombin after pre-addition of hirudin [1],BRET^H ratio following thrombin cleavage [2],SDS-PAGE of the sensor after thrombin treatment [2],bioluminescence spectrum of the sensor after thrombin [2],change of BRET^2 ratio (GFP/RLuc) at 270 pM thrombin [2] [fold],"decrease in BRET^2 signal, on-chip mixing of 1 µM sensor with 540 nM thrombin and substrate [2]",decrease of the BRET^H ratio following thrombin cleavage [2],"detection limit for thrombin, microchip BRET^H [2] [pM]","detection limit for thrombin, microplate BRET^H [2] [pM]",hybrid BRET ratio following thrombin cleavage [2],"lowest thrombin concentration observable in real time (120 seconds), side-by-side network [2] [nM]","lowest thrombin concentration tested and detected, pancake stack network [2]","thrombin concentration detected easily, pancake stack network (478 second residence time) [2]","upper end of the linear change of BRET^H ratio with thrombin concentration, microfluidic [2]","upper end of the linear change of BRET^H ratio with thrombin concentration, microplate [2]",change of BRET^2 ratio of GTR2 after 2 units of thrombin in diluted milk and orange juice (GFP^2-RG-RLuc2 (GTR2))
Recombinant hirudin from yeast (Sigma) (from UniProt P01050 1-65),1.08,–,–,–,–,–,–,–,–,–,–,–,–,–,–,–
thrombin protease (Amersham Biosciences),–,from 1.11±0.06 to 0.75±0.04,the fusion protein was cleaved into two components with molecular weights of 32.4 KDa and 36.4 KDa,Upon thrombin cleavage the green component of the spectrum was reduced,10,Approximately 75% decrease in BRET^2 signal,by approximately 32%,27,310,0.79,540,"Thrombin was detected down to 14 nM, the lowest concentration tested",27 nM thrombin could be detected easily,up to 0.24 nM for microfluidic measurements,2.7 nM for microplate measurements,Thrombin activity was detected in 1/10 dilutions of milk and orange juice
